Measurements: patent US20240043514A1, “NOVEL METHOD FOR PRODUCING ANTIBODIES” (TSINGHUA UNIVERSITY, priority 2017, published 2024)

B1: CXCL13: Recombinant Human chemokine (C-X-C motif) ligand 13 (protein, UniProt O43927 23-109, looked up)
C-X-C motif chemokine 13: VLEVYYTSLRCRCVQESSVFIPRRFIDRIQILPRGNGCPRKEIIVWKKNKSIVCVDPQAEWIQRMMEVLRKRSSSTLPVPVFKRKIP
B2: CXCL16: Mouse chemokine (C-X-C motif) ligand 16 (protein, UniProt Q8BSU2 27-246, looked up)
C-X-C motif chemokine 16: NQGSVAGSCSCDRTISSGTQIPQGTLDHIRKYLKAFHRCPFFIRFQLQSKSVCGGSQDQWVRELVDCFERKECGTGHGKSFHHQKHLPQASTQTPEAAEGTPSDTSTPAHSQSTQHSTLPSGALSLNKEHTQPWEMTTLPSGYGLEARPEAEANEKQQDDRQQEAPGAGASTPAWVPVLSLLAIVFFLTAAMAYVLCNRRATQQNSAGLQLWYTPVEPRP
B3: CCL8: Human chemokine (C-C motif) ligand 8 (protein, UniProt P80075 24-99, looked up)
C-C motif chemokine 8: QPDSVSIPITCCFNVINRKIPIQRLESYTRITNIQCPKEAVIFKTKRGKEVCADPKERWVRDSMKHLDQIFQNLKP
B4: IL27: Recombinant Human Interleukin 27 (protein, UniProt Q8NEV9 29-243; Q14213 21-229, looked up)
Interleukin-27 subunit alpha: FPRPPGRPQLSLQELRREFTVSLHLARKLLSEVRGQAHRFAESHLPGVNLYLLPLGEQLPDVSLTFQAWRRLSDPERLCFISTTLQPFHALLGGLGTQGRWTNMERMQLWAMRLDLRDLQRHLRFQVLAAGFNLPEEEEEEEEEEEEERKGLLPGALGSALQGPAQVSWPQLLSTYRLLHSLELVLSRAVRELLLLSKAGHSVWPLGFPTLSPQP
Interleukin-27 subunit beta: RKGPPAALTLPRVQCRASRYPIAVDCSWTLPPAPNSTSPVSFIATYRLGMAARGHSWPCLQQTPTSTSCTITDVQLFSMAPYVLNVTAVHPWGSSSSFVPFITEHIIKPDPPEGVRLSPLAERQLQVQWEPPGSWPFPEIFSLKYWIRYKRQGAARFHRVGPIEATSFILRAVRPRARYYVQVAAQDLTDYGELSDWSLPATATMSLGK
B5: CCL4: Recombinant Human C-C motif chemokine 4 (protein, UniProt P13236 24-92, looked up)
C-C motif chemokine 4: APMGSDPPTACCFSYTARKLPRNFVVDYYETSSLCSQPAVVFQTKRSKQVCADPSESWVQEYVYDLELN

Tested on: PBMCs
Test: In vitro immunization (IVI) of PBMCs, antigen-specific IgG/IgM production by ELISA
Type: cell-based, human
Details: for IgG production compared with Basic alone / IgM production compared with Basic alone: FIG. 19; for antigen specificity of antibody production (anti-OVA IgG vs anti-OVA IgM and anti-BSA IgG): basic + OVA, 14 days, FIGS. 20A-20C
Protocol: PBMCs were washed and diluted with PIV culture medium. Cell density was adjusted to 1*10^^7 cells/ml, treateder with 0.25 mM LLME for about 20 min. Discarded supernatant, and re-suspended cell with PIV culture medium. Adjusted cell density to 9*10^^5 cells/ml. […] Cultured the tissue for 7 days at 37° C., 5% CO2. Changed half of the medium and added factor cocktail on day 7. Cultured the cells for 7-21 days at 37° C., 5% CO2. Collected the supernatant on day 7, day 14, or day 21 for analysis of antibody production by ELISA, whereas the pellets are used for testing gene expression by PCR or RT-PCR. The collected cells were also tested in ELISpot assay for FACS analysis.
Exemplary IVI steps with addition of stimulate factors: • 1. Prepared PBMCs and treat them with LLME. • 2. […] Collected the cells and plate them into 96-well plate at a density of 6*10^4/well. • 4. […] The IgG and IgM level was examined with ELISA assay.
After day7 or day14 with addition of cytokines or antibody-enhancing composition and antigens, supernatants were harvested and added to antigen OVA-coated plates. After 2 hr incubation, a HRP-conjugated anti-human IgG or anti-human IgM was added, the amount of antigen-specific antibody was measured using TMB as substrate. The data represents the mean of 2 replicates; error bars represent SD. One representative data of 3 separate experiments is shown.
Plates were coated with antigen at 5 μg/ml overnight at 4° C. and washed them in PBST (containing 0.5% Tween-20). The plates were blocked with 5% BSA before addition of cell culture supernatants and horseradish peroxidase (HRP)-conjugated detection antibodies (dilutions: 1 in 2,500 for HRP-conjugated IgG-specific antibody (Jackson) and HRP-conjugated IgM-specific antibody. TMB substrates solution was used for measurement. […]
To further test effects of other cytokine or molecules on antibody production, a synthesized TLR7/8 agonist (50 nM and 500 nM) was added to the IVI system in the presence of antigen OVA (2 μg/ml).
An exemplary cytokine, IL1β, was tested. PBMCs were incubated in vitro with OVA, basic, and either some of the known stimulating factors ICOS, CD40L, TLR7/8 agonists or IL1β (in different doses) (1.5*10^^5 cell/well, 96 well plate). After 7 or 14 days, supernatants were harvested, and IgG/IgM antibody production was measured by ELISA assay.

| Molecule | IgG production compared with Basic alone (in vitro for 14 days, OVA) | antigen specificity of antibody production (anti-OVA IgG vs anti-OVA IgM and anti-BSA IgG) | IgM production compared with Basic alone (in vitro for 14 days, OVA) | also measured |
| --- | --- | --- | --- | --- |
| CXCL2: Human C-X-C motif chemokine 2 | better than Basic alone |  |  |  |
| CXCL5: Human C-X-C motif chemokine 5 |  | similarly stimulate the activation of OVA-specific B cells |  | IgG production compared with known stimulating factors (CXCL5 20 ng/ml, in vitro for 14 days): inferior to TLR7/8 agonist but better than ICOS and CD40L; IgG production, dose relation (in vitro for 14 days, OVA, basic, FIG. 18): dose-dependent |
| IL1β: Human interleukin-1 beta, adipose tissue-derived secretory protein |  | promotes generation of anti-OVA IgG in a high level |  |  |
| IL21: interleukin-21, cytokine; part of 'basic' medium at 50 ng/ml |  |  |  | production of anti-TrkA antibody IgG / IgM by individual stimulants (antigen TrkA, individual stimulants, day 7, IL21 50 ng/ml): stimulated the production of antibody IgG but not IgM |
| B1 |  |  | better than Basic alone |  |
| B2 | better than Basic alone |  | better than Basic alone |  |
| B3 |  | similarly stimulate the activation of OVA-specific B cells |  | IgG production compared with known stimulating factors (OVA, basic, FIG. 17): inferior to TLR7/8 agonist but better than ICOS and CD40L |
| B4 | better than Basic alone |  | better than Basic alone |  |
| B5 | better than Basic alone |  | better than Basic alone |  |
